US20210284747A1 (CAPELLA BIOSCIENCE, published 2021)
Like-named read-outs stand apart in the source and are kept apart here.

T1: Recombinant human soluble LIGHT, amino acids 74-240 (R&D Systems 664-LI) (human, UniProt O43557 74-240)
T1 construct: range 74-240; Glycosylated trimer by native MS; also called 74-240 LIGHT
T1 chain: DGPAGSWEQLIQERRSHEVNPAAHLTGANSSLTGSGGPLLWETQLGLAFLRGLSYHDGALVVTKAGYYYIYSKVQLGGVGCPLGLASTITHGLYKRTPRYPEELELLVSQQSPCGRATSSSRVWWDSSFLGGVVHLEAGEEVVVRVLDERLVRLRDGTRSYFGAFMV


Tests used:
[1] = molecular target: T2, Human LIGHT stably expressed on EL4 cells (EL4-LIGHT) (human, UniProt O43557 1-240); test: flow cytometry competition on EL4-LIGHT cells, co-incubation 40 min 4 C; blocked ligand DcR3-Fc-AF647 0.8 ug/ml; same IC50 as 0.020ug/ml, second unit printed
T2 construct: whole, on cells; also called membrane LIGHT
T2 sequence (O43557 whole entry): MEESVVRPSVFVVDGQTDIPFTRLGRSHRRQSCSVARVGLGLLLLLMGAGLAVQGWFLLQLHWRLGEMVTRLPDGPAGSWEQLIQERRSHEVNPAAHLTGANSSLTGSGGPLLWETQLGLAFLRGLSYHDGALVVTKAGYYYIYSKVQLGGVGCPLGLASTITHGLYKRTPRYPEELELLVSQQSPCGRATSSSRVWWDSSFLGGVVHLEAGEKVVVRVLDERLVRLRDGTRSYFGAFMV
Description: (§1) EL4-LIGHT cells were co-incubated with Alexa Fluor 647 conjugated DcR3-Fc (DcR3-Fc-AF647; 0.8 μg/ml) and graded concentrations (31 μg/ml to 128 μg/ml) of anti-membrane LIGHT antibodies (3B04, 03D12 and 02B111) for 40 min at 4° C. A control, of a mAb that binds both soluble and membrane LIGHT was included (F19 from EP2292663). The samples were washed three times and flow cytometry analysis was performed. Specific mean fluorescence intensity (MFI) obtained from the binding of DcR3-Fc-AF647 to LIGHT on EL4 cells were used to determine the levels of competition binding.

[2] = molecular target: T1, Recombinant human soluble LIGHT, amino …; test: summary statement comparing soluble LIGHT binding with membrane LIGHT binding; soluble LIGHT preparation not specified
[3] = molecular target: T3, LIGHT without residues 81-84, stably expressed on EL4 cells (EL4-NC-LIGHT); test: cell-based or functional assay
[4] = molecular target: T2, Human LIGHT stably expressed on EL4 …; test: flow cytometry, EL4-LIGHT cells
Description: The EC50 of the 7 mAbs were calculated from binding to EL4-LIGHT cells (FIG. 1). […] Non-linear regression analysis was performed to determine the functional binding affinity measurement or EC50 for each mAb. A range of functional affinities was observed.

[5] = molecular target: T2, Human LIGHT stably expressed on EL4 …; test: flow cytometry competition on EL4-LIGHT cells, co-incubation 40 min 4 C; blocked ligand DcR3-Fc-AF647 0.8 ug/ml; displacement is partial
Description: as §1

[6] = molecular target: T3, LIGHT without residues 81-84, stably …; test: cell-based or functional assay; remark: listed apart in the source
[7] = molecular target: T2, Human LIGHT stably expressed on EL4 …; test: flow cytometry competition on EL4-LIGHT cells, co-incubation 40 min 4 C; blocked ligand DcR3-Fc-AF647 0.8 ug/ml; same IC50 as 0.031ug/ml, second unit printed
Description: as §1

IC50 [1] [nM]	fold less specific to soluble LIGHT than membrane LIGHT [2] [fold]	IC50, inhibition of IL-8 secretion, HT-29 + EL4-NC-LIGHT cells [3] [nM]	EC50 [4] [nM]	IC50 [5] [µg/mL]	IC50, inhibition of IL-8 secretion, HT-29 + EL4-NC-LIGHT cells [6] [nM]	IC50 [7] [nM]	Binder
0.138	> 100	0.05	0.095	0.02	0.2	–	3B04 chimeric IgG4 mAb (antibody, V domains shown, also called Parental 3B04) VH: QVQLQQPGAELVRPGASVTLSCKASGYTFTDYEMHWVKQTPVHGLEWIGEIDPETGDTAYSQKFKGKATLTADKSSSTAYMEFRSLTSEDSAVYYCSRETDYFFDYWGQGTTLTVSS VL: DIQMTQTPASLSASVGETVTITCGASENIYGALNWYQRKQGKSPQLLIYGATNLADGMSSRFSGSGSGRQYSLKISSLHPDDFATYYCQNVLTTPWTFGGGTKLEIK
–	–	0.32	0.07	0.031	0.1	0.214	3D12 chimeric IgG4 mAb (antibody, V domains shown, Chimeric human IgG4 (S-to-P, L-to-E) with human CL, as m1; also called Parental 3D12; 03D12) VH: QVQLQQPGAELVRPGASVTLSCKASDYTFTDSEIHWVKQTPVHGLEWIGEIDPETGGTAYNQKFKGKATLTADKSSSTAYMELRSLTSEDSAVYYCSRETDYFFDYWGQGTTLTVSS VL: DIQMTQSPASLSASVGETVTITCGASENIYGALNWYQRKQGKSPQLLIYGATNLADGMSSRFSGSGSGRQYSLKISSLHPDDVATYYCQNVLSTPWTFGGGTKLEIK
